According to US5830755:

Key:
[1] = target: melanoma antigen presented by HLA-A1 on HLA-A1+, HLA-A2- melanoma cell lines (peptide not identified) (human)
[2] = target: melanoma antigen presented by HLA-A2 on HLA-A2+ melanoma cell lines (peptide not identified in the experiment) (human)
[3] = target: 38 kD folate binding protein (FBP) (Homo sapiens (Human)) (UniProt P15328)
[4] = target: MART-1 antigen processed in the cell and presented by HLA-A2.1 (human) (UniProt Q16655)
[5] = target: gp100 antigen processed in the cell and presented by HLA-A2.1 (human) (UniProt P40967)
[6] = target: MART-1(22-30) peptide … pulsed on HLA-A2.1 T2 cells (human)
[7] = target: MART-1(26-35) peptide … presented by HLA-A2.1 (human)
[8] = target: MART-1(27-35) peptide … presented by HLA-A2.1 (human)
[9] = target: MART-1(27-36) peptide … presented by HLA-A2.1 (human)
[10] = target: MART-1(32-40) peptide … pulsed on HLA-A2.1 T2 cells (human)
[11] = target: gp100(457-465) peptide … presented by HLA-A2.1 (human)
[12] = target: MART-1(27-35) peptide … presented by HLA-A2.1 (human); remark: listed apart in the source
[13] = target: MART-1(27-35) peptide … presented by HLA-A2.1 (human); remark: listed apart in the source
[14] = target: melanoma antigen presented by HLA-A1 on HLA-A1+, HLA-A2- melanoma cell lines (peptide not identified) (human); remark: listed apart in the source
[15] = target: melanoma antigen presented by HLA-A2 on HLA-A2+ melanoma cell lines (peptide not identified in the experiment) (human); remark: listed apart in the source
[16] = target: MART-1(22-30) peptide … pulsed on HLA-A2.1 T2 cells (human); remark: listed apart in the source
[17] = target: MART-1(26-35) peptide … presented by HLA-A2.1 (human); remark: listed apart in the source
[18] = target: MART-1(27-35) peptide … presented by HLA-A2.1 (human); remark: listed apart in the source
[19] = target: MART-1(27-36) peptide … presented by HLA-A2.1 (human); remark: listed apart in the source
[20] = target: gp100(280-288) peptide … presented by HLA-A2.1 (human)
[21] = target: melanoma antigen presented by HLA-A1 on HLA-A1+, HLA-A2- melanoma cell lines (peptide not identified) (human); remark: listed apart in the source
[22] = target: melanoma antigen presented by HLA-A2 on HLA-A2+ melanoma cell lines (peptide not identified in the experiment) (human); remark: listed apart in the source
[23] = target: 38 kD folate binding protein (FBP) (Homo sapiens (Human)) (UniProt P15328); remark: listed apart in the source
[24] = target: 38 kD folate binding protein (FBP) (Homo sapiens (Human)) (UniProt P15328); remark: listed apart in the source
[25] = target: CD3 on murine TIL (murine)
[26] = target: MART-1 antigen processed in the cell and presented by HLA-A2.1 (human) (UniProt Q16655); remark: listed apart in the source
[27] = target: melanoma antigen presented by HLA-A1 on HLA-A1+, HLA-A2- melanoma cell lines (peptide not identified) (human); remark: listed apart in the source

How did the % lysis, 4 hour 51Cr release, E:T 40:1 [1] turn out when “TIL C10-1 TCR (C10-1 T-cell clonotype, Vα8.2/Jα49/Cα and Vβ13.6/Dβ1.1/Jβ1.5/Cβ1)” was run?
The % lysis, 4 hour 51Cr release, E:T 40:1 was 55 % lysis.

And the % lysis, 4 hour 51Cr release, E:T 40:1 [2]?
The % lysis, 4 hour 51Cr release, E:T 40:1 was 0 % lysis.

With “splenocytes of normal mice (cells without a defined receptor)” as the substance, how does the mIFN-γ, pg/1.5 × 10^6 splenocytes/ml/48 hrs, fresh splenocytes [3] read?
Its mIFN-γ, pg/1.5 × 10^6 splenocytes/ml/48 hrs, fresh splenocytes is 92 pg/mL.

With “TIL 1143 (uncloned TIL culture) (cells without a defined receptor)” as the substance, how does the IFN-γ Secretion [4] read?
The IFN-γ Secretion was 986 pg/mL.

What about the IFN-γ Secretion [5] of the same substance?
The IFN-γ Secretion was 199 pg/mL.

What does the source list for “clone 5 TCR (TIL5 clonotype, Vα1/Jα49/Cα and Vβ7.3/Dβ2.1/Jβ2.1/Cβ2)”?
% lysis, 4 hour 51Cr release, E:T 10:1 [1]: -2 % lysis; % lysis, 4 hour 51Cr release, E:T 10:1 [2]: 52 % lysis; IL-2 released [6]: < 10 pg/mL; IL-2 released [7]: 4060 pg/mL; IL-2 released [8]: 4760 pg/mL; IL-2 released [9]: 469 pg/mL; IL-2 released [10]: < 10 pg/mL; IL-2 released [11]: < 10 pg/mL; IL-2 released (pg/ml), HLA-A2+ melanoma cells loaded with peptide [12]: 540 pg/mL; concentration of peptide required to provide 50% of maximal IL-2 stimulation [13]: 50 to 200 nM

With “clone A42 TCR (TIL A42 clonotype, Vα21/Jα42/Cα and Vβ7.3/Dβ2.1/Jβ2.7/Cβ2)” as the substance, how does the % lysis, 5 hr 51Cr release, E:T 20:1 [14] read?
The % lysis, 5 hr 51Cr release, E:T 20:1 was 0 % lysis.

And the % lysis, 5 hr 51Cr release, E:T 20:1 [15]?
The % lysis, 5 hr 51Cr release, E:T 20:1 was 57 % lysis.

And the IFN-γ Secretion [4]?
The IFN-γ Secretion was 730 pg/mL.

What about the IFN-γ Secretion [5] of the same substance?
The IFN-γ Secretion was < 10 pg/mL.

And the IFN-γ Secretion [16]?
The IFN-γ Secretion was 16 pg/mL.

And the IFN-γ Secretion [17]?
The IFN-γ Secretion was 765 pg/mL.

And the IFN-γ Secretion [18]?
The IFN-γ Secretion was > 20000 pg/mL.

What about the IFN-γ Secretion [19] of the same substance?
The IFN-γ Secretion was 22 pg/mL.

And the IFN-γ Secretion [20]?
Its IFN-γ Secretion is 19 pg/mL.

What about the IFN-γ Secretion [21] of the same substance?
The IFN-γ Secretion was 18 pg/mL.

And the IFN-γ Secretion [22]?
Its IFN-γ Secretion is 772 pg/mL.

“MOv-γ chimeric receptor (scFv of MoAb MOv18 joined to the Fc receptor γ chain) (CAR)” was tested. Which pg mIFN-γ/ml/5 × 10^5 cells/16 hours [23] did it give?
The pg mIFN-γ/ml/5 × 10^5 cells/16 hours was 16000 pg/mL.

And the mIFN-γ, pg/1.5 × 10^6 splenocytes/ml/48 hrs, fresh splenocytes [3]?
The mIFN-γ, pg/1.5 × 10^6 splenocytes/ml/48 hrs, fresh splenocytes was 1080 pg/mL.

And the mIFN-γ, pg/1.5 × 10^6 splenocytes/ml/18 hrs, activated splenocytes [24]?
The mIFN-γ, pg/1.5 × 10^6 splenocytes/ml/18 hrs, activated splenocytes was 2830 pg/mL.

How did the IL-2 released [6] turn out when “Jurkat neo (non-transfected Jurkat cells with the endogenous Jurkat TCR, Vβ8)” was run?
Its IL-2 released is < 10 pg/mL.

What about the IL-2 released [8] of the same substance?
Its IL-2 released is < 10 pg/mL.

And the IL-2 released [9]?
The IL-2 released was < 10 pg/mL.

What about the IL-2 released [10] of the same substance?
The IL-2 released was < 10 pg/mL.

What about the IL-2 released [11] of the same substance?
The IL-2 released was < 10 pg/mL.

With “TIL F2-2 TCR (TIL F2-2 clonotype, Vα17/Jα42/Cα and Vβ6.5/Dβ1.1/Jβ1.5/Cβ1)” as the substance, how does the % lysis, 4 hour 51Cr release, E:T 40:1 [1] read?
Its % lysis, 4 hour 51Cr release, E:T 40:1 is 1 % lysis.

What about the % lysis, 4 hour 51Cr release, E:T 40:1 [2] of the same substance?
The % lysis, 4 hour 51Cr release, E:T 40:1 was 46 % lysis.

Which % lysis, 4 hour 51Cr release, E:T 40:1 [1] does the source give for “TIL 1200 TCR (TIL 1200 clonotype, Vα9/Jα16/Cα and Vβ22.1/Dβ2.1/Jβ2.1/Cβ2)” here?
The % lysis, 4 hour 51Cr release, E:T 40:1 was 2 % lysis.

What about the % lysis, 4 hour 51Cr release, E:T 40:1 [2] of the same substance?
The % lysis, 4 hour 51Cr release, E:T 40:1 was 68 % lysis.

What about the IFN-γ Secretion [4] of the same substance?
Its IFN-γ Secretion is < 10 pg/mL.

And the IFN-γ Secretion [5]?
Its IFN-γ Secretion is 451 pg/mL.

And the GM-CSF released [6]?
The GM-CSF released was < 10 pg/mL.

What about the GM-CSF released [7] of the same substance?
Its GM-CSF released is 23 pg/mL.

And the GM-CSF released [8]?
Its GM-CSF released is 19 pg/mL.

And the GM-CSF released [9]?
The GM-CSF released was 19 pg/mL.

What about the GM-CSF released [10] of the same substance?
The GM-CSF released was < 10 pg/mL.

And the GM-CSF released [11]?
The GM-CSF released was 240 pg/mL.

Which pg mIFN-γ/ml/5 × 10^5 cells/16 hours [23] does the source give for “nontransduced murine MC38 TIL (cells without a defined receptor)” here?
The pg mIFN-γ/ml/5 × 10^5 cells/16 hours was 1640 pg/mL.

What does the source list for “TIL 501 (uncloned TIL culture) (cells without a defined receptor)”?
IFN-γ Secretion [4]: 121 pg/mL; IFN-γ Secretion [5]: < 10 pg/mL

“clone 1E2 TCR (TIL 1E2 clonotype, Vα25/Jα54/Cα and Vβ3.1/Dβ1.1/Jβ1.1/Cβ1)” was tested. Which % lysis, 5 hr 51Cr release, E:T 20:1 [14] did it give?
Its % lysis, 5 hr 51Cr release, E:T 20:1 is 0 % lysis.

What about the % lysis, 5 hr 51Cr release, E:T 20:1 [15] of the same substance?
The % lysis, 5 hr 51Cr release, E:T 20:1 was 94 % lysis.

And the IFN-γ Secretion [4]?
Its IFN-γ Secretion is 1340 pg/mL.

And the IFN-γ Secretion [5]?
The IFN-γ Secretion was < 10 pg/mL.

What about the IFN-γ Secretion [16] of the same substance?
The IFN-γ Secretion was 18 pg/mL.

And the IFN-γ Secretion [17]?
Its IFN-γ Secretion is 5250 pg/mL.

What about the IFN-γ Secretion [18] of the same substance?
The IFN-γ Secretion was 16500 pg/mL.

What about the IFN-γ Secretion [19] of the same substance?
Its IFN-γ Secretion is 24 pg/mL.

What about the IFN-γ Secretion [20] of the same substance?
Its IFN-γ Secretion is 21 pg/mL.

And the IFN-γ Secretion [21]?
The IFN-γ Secretion was 29 pg/mL.

What about the IFN-γ Secretion [22] of the same substance?
Its IFN-γ Secretion is 2700 pg/mL.

For “Sp-γ chimeric receptor (scFv of anti-2,4,6 TNP MoAb Sp6 joined to the Fc receptor γ chain) (CAR)”, which pg mIFN-γ/ml/5 × 10^5 cells/16 hours [23] is on record?
The pg mIFN-γ/ml/5 × 10^5 cells/16 hours was 1010 pg/mL.

For 2C11 (anti-CD3) antibody, which pg mIFN-γ/ml/5 × 10^5 cells/16 hours [25] is on record?
Its pg mIFN-γ/ml/5 × 10^5 cells/16 hours is > 50000 pg/mL.

With “TIL 1235 (uncloned TIL line) (cells without a defined receptor)” as the substance, how does the IFN-γ Secretion [20] read?
The IFN-γ Secretion was 15 pg/mL.

What about the GM-CSF released [6] of the same substance?
Its GM-CSF released is 21 pg/mL.

What about the GM-CSF released [7] of the same substance?
Its GM-CSF released is 6710 pg/mL.

What about the GM-CSF released [8] of the same substance?
Its GM-CSF released is 11900 pg/mL.

What about the GM-CSF released [9] of the same substance?
The GM-CSF released was 614 pg/mL.

What about the GM-CSF released [10] of the same substance?
Its GM-CSF released is < 10 pg/mL.

What about the GM-CSF released [11] of the same substance?
The GM-CSF released was 27 pg/mL.

What about the GM-CSF released [26] of the same substance?
The GM-CSF released was 557 pg/mL.

What about the GM-CSF released [27] of the same substance?
Its GM-CSF released is < 10 pg/mL.

What does the source list for “TIL 660 (uncloned TIL line) (cells without a defined receptor)”?
IFN-γ Secretion [16]: 21 pg/mL; IFN-γ Secretion [17]: 1120 pg/mL; IFN-γ Secretion [18]: 2330 pg/mL; IFN-γ Secretion [19]: 52 pg/mL; IFN-γ Secretion [20]: 1320 pg/mL; IFN-γ Secretion [21]: 27 pg/mL; IFN-γ Secretion [22]: 585 pg/mL
